Numbering of substitutions follows the chain as printed.
T1: soluble recombinant human E-selectin (R & D Systems, ADP1) (human, UniProt P16581 22-556)
T1 sequence (looked up): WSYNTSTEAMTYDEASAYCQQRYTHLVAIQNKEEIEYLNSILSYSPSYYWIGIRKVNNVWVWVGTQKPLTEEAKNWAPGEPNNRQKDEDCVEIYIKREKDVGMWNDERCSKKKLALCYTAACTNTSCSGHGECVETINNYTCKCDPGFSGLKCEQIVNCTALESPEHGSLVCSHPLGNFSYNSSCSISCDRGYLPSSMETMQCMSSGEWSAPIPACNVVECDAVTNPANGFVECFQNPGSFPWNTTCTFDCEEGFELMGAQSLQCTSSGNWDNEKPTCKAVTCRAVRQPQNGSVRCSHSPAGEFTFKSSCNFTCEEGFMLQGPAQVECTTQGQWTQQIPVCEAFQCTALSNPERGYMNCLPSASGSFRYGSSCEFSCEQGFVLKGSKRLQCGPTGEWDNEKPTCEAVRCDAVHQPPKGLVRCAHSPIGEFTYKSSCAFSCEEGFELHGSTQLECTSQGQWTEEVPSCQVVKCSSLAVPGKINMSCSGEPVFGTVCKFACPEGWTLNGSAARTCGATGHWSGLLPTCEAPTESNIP

T2: human E-selectin, cell-surface expressed (human, UniProt P16581 22-610)
T2 construct: also called CHO-human E-selectin cells; human CHO-E
T2 sequence: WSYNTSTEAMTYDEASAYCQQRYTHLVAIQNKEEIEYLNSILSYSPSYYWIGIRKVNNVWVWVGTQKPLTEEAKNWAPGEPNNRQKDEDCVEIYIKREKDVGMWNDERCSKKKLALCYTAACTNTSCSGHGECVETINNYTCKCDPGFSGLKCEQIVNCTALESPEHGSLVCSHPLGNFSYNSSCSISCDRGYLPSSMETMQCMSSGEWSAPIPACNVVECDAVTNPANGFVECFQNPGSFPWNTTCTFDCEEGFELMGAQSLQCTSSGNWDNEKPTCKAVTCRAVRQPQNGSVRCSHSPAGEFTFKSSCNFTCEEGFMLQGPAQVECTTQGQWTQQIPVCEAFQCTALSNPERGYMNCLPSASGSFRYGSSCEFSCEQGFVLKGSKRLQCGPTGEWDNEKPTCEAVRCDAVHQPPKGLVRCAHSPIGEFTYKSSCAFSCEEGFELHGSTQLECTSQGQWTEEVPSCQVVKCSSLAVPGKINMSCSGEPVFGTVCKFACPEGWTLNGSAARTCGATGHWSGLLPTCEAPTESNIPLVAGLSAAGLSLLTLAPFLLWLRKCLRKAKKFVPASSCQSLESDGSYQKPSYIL

T3: mouse E-selectin extracellular domain with 10 His purification tail (mouse, UniProt Q00690 22-557)
T3 construct: also called soluable mouse E-selectin extracellular domain; muE-Selctin
T3 sequence: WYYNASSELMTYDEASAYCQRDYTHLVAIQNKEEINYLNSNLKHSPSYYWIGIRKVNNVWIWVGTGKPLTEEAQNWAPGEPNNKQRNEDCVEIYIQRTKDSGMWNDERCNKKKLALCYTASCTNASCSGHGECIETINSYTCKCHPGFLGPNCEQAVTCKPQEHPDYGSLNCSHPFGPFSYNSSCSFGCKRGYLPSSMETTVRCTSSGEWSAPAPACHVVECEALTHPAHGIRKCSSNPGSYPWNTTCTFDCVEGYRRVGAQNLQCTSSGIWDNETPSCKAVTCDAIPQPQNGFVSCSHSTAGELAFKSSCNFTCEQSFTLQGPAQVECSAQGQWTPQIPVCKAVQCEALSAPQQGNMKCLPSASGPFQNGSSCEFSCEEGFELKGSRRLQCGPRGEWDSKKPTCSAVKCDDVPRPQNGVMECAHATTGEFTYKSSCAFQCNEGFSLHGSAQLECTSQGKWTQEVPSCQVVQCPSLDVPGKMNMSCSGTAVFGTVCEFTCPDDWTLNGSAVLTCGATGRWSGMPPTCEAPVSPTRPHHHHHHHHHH

B1: anti-E-selectin antibody 0159 chimera (antibody, human IgG1, kappa, V domains shown)
VH: EVQLQQSGAELGKPGTSVKLSCKVSGYNIRSTYMHWVSQRPGKGLEWIGRIDPANGNTIYAEKFKRKATLTADTSSNTAYMQLSQLKSDDRAIYFCAMEVRVSFEYWGQGVMVTVSS
VL: DIQMTQSPSFLSASVGDRVTINCKASQNINKYLDWYQQKLGEGPKLLIYYTNNLHTGIPSRFSGSGSGTDFTLTISSLQPEDVATYFCLQHDSGYTFGAGTKLELKR
notes: rat VH/VL on effector-null human IgG1 and human kappa
B2: anti-E-selectin antibody 0170 chimera (antibody, human IgG1, kappa, V domains shown)
VH: EVQLQQSGAELGKPGTSVKLSCKVSGYSIRSTYMHWVNQRPGKGLEWVGRIDPANGNTIYAERFKNKATLTADTSSNTAYMQLSQLKSDDTAIYFCAVEILGIFDYWGQGVMVTVSS
VL: B1 VL with N30D, G43A, I48M, Y50N, N53S, D92N
notes: as for B1
B3: anti-E-selectin antibody 0158 chimera (antibody, human IgG1, kappa, V domains shown)
VH: QVQLKESGPGLVQPSETLSLTCTVSGFSISTYNVHWLRQPPGKGLEWMGMMWSGGSPDYNSALKSRLSISRDTSKNQVFLKMNSLQSEDTTTYYCARWGGGFDYWGQGVMVTVSS
VL: DIVLTQSPTTLSVTPGETVSLSCRASHSIGTNLHWYQQKTNESPRLLIKFTSQSISGIPSRFSASGSGTDFTLNINNVEFDDVSSYFCQQTQSWPLTFGSGTKLEIKR
notes: as for B1
B4: anti-E-selectin antibody 0039 chimera (antibody, human IgG1, kappa, V domains shown)
VH: QVQLKETGPGLVQPTQTLSITCTVSGFSLTGYYMQWVRQTPGKGLEWMGFIRSSGSTEYNSEFKSRLSISRDTSKNQVFLKMNSLKTEDTGVYYCARCPYKYSSFVYVGVMDAWGQGAPVTVSS
VL: EIVMTQSPTSMSTSIGERVTLNCKASQTVGINVDWYQQTPGQPPKLLIYGASNRHTGVPDRFTGSGFGRDFTLTISNVEAEDLAVYCCLQYGSIPHTFGPGTKLELKR
notes: as for B1
B5: anti-E-selectin antibody 0180 chimera (antibody, human IgG1, kappa, V domains shown)
VH: EVQLQQSGAELGKPGTSVKLSCKVSGYKIRSSYMHWVNQRPGKGLEWIGRIDPANGNTIYGDKFKSKATLTSDTSSNTAYIQLSQLKSDDTAIYFCAIDIGTTFDYWGQGVMVTVSS
VL: DIQMTQSPSFLSASVGDRVTINCKASQHINRYLNWYQQKLGEAPKLLIYDANNLQTGIPSRFSGSGSGTDFTLTISSLQPEDVATYFCLQHNSWPNTFGAGTKLELKR
notes: as for B1
B6: anti-E-selectin antibody 0164 chimera (antibody, human IgG1, kappa, V domains shown)
VH: EVQLQQSGAEFGKPGTSVKLSCKVSGYNIRSSYMHWVNQRPGKGLEWIGRIDPANGNTIYAEKFKIKAILTADSSSNTAYMQLSQLKSDDTAIYFCAMDLYSTSEYWGQGVMVTVSS
VL: B5 VL with A25T, H28N, D50N, N53S, G64A, S76N, H91D, N96L, A100S, L106I
notes: as for B1

The binders below were run against T1, soluble recombinant human E-selectin (R …) (assay: cell-based or functional assay).

neutralization of HL-60 cell binding under physiological flow to soluble human E-selectin protein IC50 (nM)	Binder
21	B1
74.2	B2
17.9	B3
265	B4
225	B5
1.7	B6

What follows are binders tested against T2, human E-selectin, cell-surface expressed (assay: flow cytometry, CHO cells).
Description: Cells were maintained in growth medium at 37° C., 5% CO₂ and 95% air in a humidified incubator. Methotrexate or Zeocin were removed from the medium prior to culture for experiments. CHO-E selectin cells or P-selectin cells were detached from T-150 flasks using citric saline (135 mM KCl, 15 mM sodium citrate) and immediately re-calcified with the addition of CaCl₂) to the detached cells to a final concentration of 1 mM. Growth media was immediately added to the detached cells, then centrifuged at 300×g for 5 minutes at room temperature to pellet the cells. Cells were plated into 96-well V-bottom plates in cold CHO buffer consisting of phosphate buffered saline (PBS), pH 7.4 containing bovine serum albumin (BSA; Sigma-Aldrich) at final concentration of 1%, calcium chloride at final concentration of 1 mM, and sodium azide at a final concentration of 0.1%, for 5 minutes on wet ice. After incubation, the cells were centrifuged at 300×g for 2 minutes at 4° C. to remove the buffer.
After incubation, antibodies were removed and the cells were washed three times by centrifugation at 300×g for 1 minute at 4° C. and resuspended in cold CHO buffer. The washed cells were incubated for 30 minutes on wet ice with 100 μL of a 1:1000 dilution of APC-conjugated AffiniPure F(ab′)₂ Fragment Goat Anti-human IgG, Fcγ (Jackson Imnnunoresearch). The cells were washed three or four times prior to resuspension in CHO buffer for flow cytometric analysis. A Becton Dickinson LSRFortessa instrument using 640 nanometer laser line was used to acquire cell fluorescence data. Geometric mean fluorescence of cells was analyzed by FlowJo software package (FlowJo, LLC) and plotted against antibody concentration. The estimated EC₅₀ values were calculated using nonlinear regression analysis in the Prism suite (GraphPad, version 8) (Table 8).

EC50 [nM]	Binder
2.44	B1
1.99	B2
3.75	B3
4.99	B4
4.31	B5
4.43	B6

The binders below were run against T3, mouse E-selectin extracellular domain … (assay: AlphaLISA competition vs sialyl Lewis A-PAA-biotin).
Description: The neutralization ability of anti-E-selectin antibodies was measured in an AlphaLISA homogenous competition assay. […] This was incubated at room temperature for 15 minutes, followed by addition of 1.4 μL of human, mouse or cynomolgus monkey E-selectin added to a final concentration of 7 nM. This was again incubated at room temperature for 15 minutes. To this, 1.4 μL AlphaLISA beads was added (Ni-donor/SA-acceptor) for a final assay concentration of 10 μg/mL. This was incubated in the dark at room temperate for at least 10 hours. The plates were then read using the AlphaLISA protocol (Envision).

EC50 [nM]	Binder
> 133	B1
> 133	B2
> 133	B3
> 133	B4
> 133	B5
> 133	B6

Source: patent US20240076386A1 (Pfizer, published 2024)
